From patent publication US20130189255A1, “FUSIONS AND CONJUGATES OF INSULINOTROPIC AGENTS” (GLAXO GROUP LIMITED, priority 2008, published 2013)

Target: RSA (Rattus norvegicus, UniProt P02770)
Assay: Surface plasmon resonance (Biacore, streptavidin chip with biotinylated serum albumin), RSA
Type: binding
Details: Biacore SA chip, HBS-EP buffer; read-out: Affinity (KD) to RSA
Experimental: The analysis was performed using a streptavidin chip (SA) coated with biotinylated serum albumin. 200-1000 resonance units (RUs) of each serum albumin was immobilised on the chip. Flow cell 1 was uncoated, flow cell 2 was coated with HSA, flow cell 3 was coated with RSA and flow cell 4 was coated with CSA. A range of concentrations of fusion was prepared (in the range 15.6 nM to 2 μM by dilution into BIACORE HBS-EP buffer (0.01M HEPES, pH7.4, 0.15M NaCl, 3 mM EDTA, 0.005% surfactant P20) and flowed across the BIACORE chip.
Affinity (KD) was calculated from the BIACORE traces by fitting on-rate and off-rate curves to traces generated by concentrations of dAb in the region of the KD.

Chain of RSA (P02770 25-608): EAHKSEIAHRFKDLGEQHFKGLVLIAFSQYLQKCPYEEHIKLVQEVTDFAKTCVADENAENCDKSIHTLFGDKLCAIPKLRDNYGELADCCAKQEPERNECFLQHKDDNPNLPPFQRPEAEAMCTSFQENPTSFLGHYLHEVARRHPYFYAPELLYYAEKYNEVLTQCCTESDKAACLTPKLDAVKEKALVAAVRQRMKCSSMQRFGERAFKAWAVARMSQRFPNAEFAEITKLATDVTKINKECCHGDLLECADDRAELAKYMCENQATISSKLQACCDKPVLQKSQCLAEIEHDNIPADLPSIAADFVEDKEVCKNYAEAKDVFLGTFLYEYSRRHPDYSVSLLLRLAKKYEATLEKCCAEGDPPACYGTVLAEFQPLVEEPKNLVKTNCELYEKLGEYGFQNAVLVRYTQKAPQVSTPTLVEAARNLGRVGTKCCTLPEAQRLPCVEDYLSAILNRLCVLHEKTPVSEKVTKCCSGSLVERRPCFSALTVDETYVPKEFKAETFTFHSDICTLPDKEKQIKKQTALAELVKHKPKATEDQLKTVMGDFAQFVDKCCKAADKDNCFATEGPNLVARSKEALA

## Exendin 4 (G4S linker)3 DOM7h-14 dAb fusion [DAT0115]
  Kd: 2000 nM
